Experimental data as given in patent publication US9186390B2, “Methods and uses of TIE2 binding and/or activating agents” (Sunnybrook Health Sciences Center, priority 2010, dated 2015).

B1: Ang1: Angiopoietin 1, Tie2 ligand, overexpressed in the vasculature from the pTetOS-Ang1 transgene (protein, UniProt Q15389 16-498, looked up)
Angiopoietin-1: HIGCSNQRRSPENSGRRYNRIQHGQCAYTFILPEHDGNCRESTTDQYNTNALQRDAPHVEPDFSSQKLQHLEHVMENYTQWLQKLENYIVENMKSEMAQIQQNAVQNHTATMLEIGTSLLSQTAEQTRKLTDVETQVLNQTSRLEIQLLENSLSTYKLEKQLLQQTNEILKIHEKNSLLEHKILEMEGKHKEELDTLKEEKENLQGLVTRQTYIIQELEKQLNRATTNNSVLQKQQLELMDTVHNLVNLCTKEGVLLKGGKREEEKPFRDCADVYQAGFNKSGIYTIYINNMPEPKKVFCNMDVNGGGWTVIQHREDGSLDFQRGWKEYKMGFGNPSGEYWLGNEFIFAITSQRQYMLRIELMDWEGNRAYSQYDRFHIGNEKQNYRLYLKGHTGTAGKQSSLILHGADFSTKDADNDNCMCKCALMLTGGWWFDACGPSNLNGMFYTAGQNHGKLNGIKWHYFKGPSYSLRSTTMMIRPLDF

Test system: AT derm mice (pTek-tTA:pTetOS-Tek)
Assay: Enforced expression of Ang1 or Ang2 in AT derm mice (triple transgenic)
Assay type: in vivo
Settings: for atopic dermatitis phenotype (erythema, ear micro-haemorrhages, tail scaly plaque): transgenic overexpression in the vasculature of AT derm mice
From the text: Briefly, construction of the driver transgene, pTek-tTA, and the responder transgenes, pTetOS-Tek, pTetos-Ang1, and pTetos-Ang2 have been described previously. All transgenic lines were maintained and genotyped as previously described (Voskas et al. (2005) Am. J. Pathol. 166(3):843-855, Ward et al. (2004) Am. J. Pathol. 165(3):889-899, Bureau et al. (2006) Am. J. Physiol. Heart Circ. Physiol. 291(2):H948-965). Males were housed with a single female for 14 to 20 days and then separated into individual cages. CD1 mice (an outbred mouse line) were maintained in a barrier facility. All adult mice used in these studies were 2 to 6 months old.
The present inventors have previously shown that enforced overexpression of the Tie2 receptor in the vasculature results in an inflammatory skin phenotype in mice (FIG. 3A) that is consistent with many hallmarks of human atopic dermatitis/psoriasis (Voskas et al. (2005) Am. J. Pathol. 166(3), 843-855, Voskas et al. (2009) J. Leukoc. Biol. 84(1), 59-67). […] Using common mouse transgenic approaches, a system was devised in which the impact of enforced expression of Ang1 or Ang2 could be assessed in this mouse model of inflammatory skin disease. This is the first such system where the implications of Ang1 or Ang2 expression can be simultaneously addressed in a single pathological state. […] This was marked by a gross reduction in snout, conjunctiva, ear and paw erythema (FIGS. 3C-E).

Molecule	atopic dermatitis phenotype (erythema, ear micro-haemorrhages, tail scaly plaque)	epidermal hyperplasia and dermal leukocyte infiltration (histology) (triple transgenic mice)
Ang2: Angiopoietin 2, natural antagonist of Ang1, overexpressed from the pTetOS-Ang2 transgene	exacerbated all of the noted phenotypic hallmarks	
B1	dramatic amelioration of disease	resolution of epidermal hyperplasia
